Measurements published in patent publication US20150056199A1 (ACCELERON PHARMA, published 2015).
Each block holds one binder with its values, some of them ahead of it.

B2: hTβRII-hG1Fc fusion protein (R&D Systems) incorporating the wild-type TβRIIshort isoform (Fc fusion)
chain: IPPHVQKSVNNDMIVTDNNGAVKFPQLCKFCDVRFSTCDNQKSCMSNCSITSICEKPQEVCVAVWRKNDENITLETVCHDPKLPYHDFILEDAASPKCIMKEKKKPGETFFMCSCSSDECNDNIIFSEEYNTSNPD
notes: Bought from R&D Systems; also called hTβRII-Fc; TGFβ receptor type II (TβRII)-Fc; not shown: human IgG1 Fc domain
B7: murine GDF15 (mGDF15), mature, generated in-house in CHO cells (ligand)
chain: AHPRDSCPLGPGRCCHLETVQATLEDLGWSDWVLSPRQLQLSMCVGECPHLYRSANTHAQIKARLHGLQPDKVPAPCCVPSSYTPVVLMHRTDSGVSLQTYDDLVARGCHCA

What was measured:
[1] = target: B2; assay: surface plasmon resonance at 37° C., hTβRII-Fc captured, hGDF15 as analyte; 37° C.; hTβRII-Fc captured, hGDF15 as analyte
From the text: (§1) These fusion proteins incorporated an IgG1 Fc domain and were either purchased from R&D Systems or generated in-house.

[2] = target: T1, GDF15 (human or murine, not specified where printed); assay: surface plasmon resonance, receptor-Fc captured, GDF15 as analyte
T1 construct: Used here only where the species cannot be told
From the text: as §1

[3] = target: B7; assay: surface plasmon resonance with captured receptor-Fc fusion proteins
From the text: as §1

[4] = target: B2; assay: surface plasmon resonance at 37° C., mGDF15
[5] = target: T2, ALK3 receptor-Fc fusion protein (human, UniProt P36894 24-152); assay: surface plasmon resonance with captured receptor-Fc fusion proteins
T2 construct: Bought from R&D Systems or made in-house; not shown: IgG1 Fc domain
From the text: as §1

[6] = target: T3, ALK6 receptor-Fc fusion protein (human, UniProt O00238 14-126); assay: as above
T3 construct: Bought from R&D Systems or made in-house; not shown: IgG1 Fc domain
T3 sequence (looked up): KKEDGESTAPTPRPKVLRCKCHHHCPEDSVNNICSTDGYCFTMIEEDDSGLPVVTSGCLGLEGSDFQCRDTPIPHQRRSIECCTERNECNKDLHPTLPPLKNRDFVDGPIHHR
From the text: as §1

[7] = target: B7; assay: surface plasmon resonance at 37° C., mGDF15

T2 sequence (P36894 24-152 limits assumed): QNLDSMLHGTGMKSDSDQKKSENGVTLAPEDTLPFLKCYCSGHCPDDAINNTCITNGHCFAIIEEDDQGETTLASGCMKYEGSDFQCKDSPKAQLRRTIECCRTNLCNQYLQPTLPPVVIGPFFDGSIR

B1: human GDF15 (hGDF15), mature, generated in-house in CHO cells (ligand)
chain: ARNGDHCPLGPGRCCRLHTVRASLEDLGWADWVLSPREVQVTMCIGACPSQFRAANMHAQIKTSLHRLKPDTVPAPCCVPASYNPMVLIQKTDTGVSLQTYDDLLAKDCHCI
notes: also called MIC-1
- Kd [1]: 9.56 nM

Binder: B2
- koff [2]: 0.001 s⁻¹
- kon [2]: 292000 M⁻¹ s⁻¹

Binder: B7
- Kd [4]: 4.8 nM
- binding result [5]: no binding (tested: 20 nM or 200 nM)
- binding result [6]: no binding (tested: 20 nM or 200 nM)

B8: fusion protein incorporating the wild-type TβRIIlong isoform (R&D Systems) (Fc fusion)
chain: TIPPHVQKSDVEMEAQKDEIICPSCNRTAHPLRHINNDMIVTDNNGAVKFPQLCKFCDVRFSTCDNQKSCMSNCSITSICEKPQEVCVAVWRKNDENITLETVCHDPKLPYHDFILEDAASPKCIMKEKKKPGETFFMCSCSSDECNDNIIFSEEYNTSNPD
notes: Bought from R&D Systems; also called TβRIIlong-Fc; not shown: Fc fusion partner of the purchased construct is not described for this follow-up analysis
- Kd [7]: 2.7 nM

Further lines, results first:

- binding result [3]: no binding (tested: 20 nM or 200 nM)
B3: ALK2 receptor-Fc fusion protein (Fc fusion, human, UniProt Q04771 21-123, looked up)
chain: MEDEKPKVNPKLYMCVCEGLSCGNEDHCEGQQCFSSLSINDGFHVYQKGCFQVYEQGKMTCKTPPSPGQAVECCQGDWCNRNITAQLPTKGKSFPGTQNFHLE
notes: Bought from R&D Systems or made in-house; not shown: IgG1 Fc domain

- binding result [3]: no binding (tested: 20 nM or 200 nM)
B4: ALK7 receptor-Fc fusion protein (Fc fusion, human, UniProt Q8NER5 21-113, looked up)
chain: ELSPGLKCVCLLCDSSNFTCQTEGACWASVMLTNGKEQVIKSCVSLPELNAQVFCHSSNNVTKTECCFTDFCNNITLHLPTASPNAPKLGPME
notes: as for B3

- binding result [3]: no binding (tested: 20 nM or 200 nM)
B5: ALK4 receptor-Fc fusion protein (Fc fusion, human, UniProt P36896 24-126, looked up)
chain: SGPRGVQALLCACTSCLQANYTCETDGACMVSIFNLDGMEHHVRTCIPKVELVPAGKPFYCLSSEDLRNTHCCYTDYCNRIDLRVPSGHLKEPEHPSMWGPVE
notes: as for B3

- binding result [3]: no binding (tested: 20 nM or 200 nM)
B6: ALK5 receptor-Fc fusion protein (Fc fusion, human, UniProt P36897 34-126, looked up)
chain: LQCFCHLCTKDNFTCVTDGLCFVSVTETTDKVIHNSMCIAEIDLIPRDRPFVCAPSSKTGSVTTTYCCNQDHCNKIELPTTVKSSPGLGPVEL
notes: Bought from R&D Systems or made in-house; also called TGFβ receptor type I; not shown: IgG1 Fc domain
